Reference: EP3984547A1 (Universitat Pompeu Fabra, dated 2022)
Where no end group is shown, it is not given here.

T1: TWEAK (Peprotech EC, Ltd, U.K.) (UniProt O43508 94-249, limits assumed)
T1 sequence (looked up): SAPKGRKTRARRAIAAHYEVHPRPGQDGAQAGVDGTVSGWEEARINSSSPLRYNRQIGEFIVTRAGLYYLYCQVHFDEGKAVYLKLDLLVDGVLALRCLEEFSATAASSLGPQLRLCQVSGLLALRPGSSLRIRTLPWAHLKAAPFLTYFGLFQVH

T2: Histidine-tagged human TWEAK (His6-TWEAK) protein (R&D Systems) (human, UniProt O43508 93-249, limits assumed)
T2 construct: Bought protein, captured through the His6 tag on an NTA chip and then coupled covalently by amine coupling; also called human His6-TWEAK protein; histidine-tagged TWEAK; not shown: His6 tag
T2 sequence (looked up): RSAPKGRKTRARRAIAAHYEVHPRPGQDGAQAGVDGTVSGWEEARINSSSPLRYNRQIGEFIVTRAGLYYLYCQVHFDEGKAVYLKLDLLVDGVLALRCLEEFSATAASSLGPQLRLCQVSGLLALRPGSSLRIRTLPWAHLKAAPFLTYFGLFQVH


molecular target: T1, TWEAK (Peprotech EC, Ltd, U.K.); experiment: cell-based or functional assay

| BIRC2 normalized level of expression (Zscore vs NARS2), RT-PCR, cells with peptide at 450 µM [Zscore] | HSP90B1 normalized level of expression (Zscore vs NARS2), RT-PCR, cells with peptide at 450 µM [Zscore] | IL6 normalized level of expression (Zscore vs NARS2), RT-PCR, cells with peptide at 450 µM [Zscore] | JUN normalized level of expression (Zscore vs NARS2), RT-PCR, cells with peptide at 450 µM [Zscore] | MAP4K4 normalized level of expression (Zscore vs NARS2), RT-PCR, cells with peptide at 450 µM [Zscore] | MAPK14 normalized level of expression (Zscore vs NARS2), RT-PCR, cells with peptide at 450 µM [Zscore] | NFkB2 normalized level of expression (Zscore vs NARS2), RT-PCR, cells with peptide at 450 µM [Zscore] | TNFRSF12A normalized level of expression (Zscore vs NARS2), RT-PCR, cells with peptide at 450 µM [Zscore] | TRAF2 normalized level of expression (Zscore vs NARS2), RT-PCR, cells with peptide at 450 µM [Zscore] | Binder |
| --- | --- | --- | --- | --- | --- | --- | --- | --- | --- |
| -0.61 | -0.921 | -0.045 | -0.509 | -1.56 | -1.11 | -1.32 | -1.11 | -0.439 | DNGGGNTDIYSE-NH2 [Peptide 4: DNGGGNTDIYSE (SEQ ID NO: 4)] |
| -0.115 | -0.468 | -0.972 | -0.206 | -1.36 | -0.585 | -1.15 | -1.08 | -0.577 | SYTDVQDS-NH2 [Peptide 3: SYTDVQDS (SEQ ID NO: 3)] |

More lines, now with the values behind:

| Binder | BIRC2 normalized level of expression (Zscore vs NARS2), RT-PCR, cells with peptide at 450 µM [Zscore] | HSP90B1 normalized level of expression (Zscore vs NARS2), RT-PCR, cells with peptide at 450 µM [Zscore] | IL6 normalized level of expression (Zscore vs NARS2), RT-PCR, cells with peptide at 450 µM [Zscore] | JUN normalized level of expression (Zscore vs NARS2), RT-PCR, cells with peptide at 450 µM [Zscore] | MAP4K4 normalized level of expression (Zscore vs NARS2), RT-PCR, cells with peptide at 450 µM [Zscore] | MAPK14 normalized level of expression (Zscore vs NARS2), RT-PCR, cells with peptide at 450 µM [Zscore] | NFkB2 normalized level of expression (Zscore vs NARS2), RT-PCR, cells with peptide at 450 µM [Zscore] | TNFRSF12A normalized level of expression (Zscore vs NARS2), RT-PCR, cells with peptide at 450 µM [Zscore] | TRAF2 normalized level of expression (Zscore vs NARS2), RT-PCR, cells with peptide at 450 µM [Zscore] |
| --- | --- | --- | --- | --- | --- | --- | --- | --- | --- |
| TTDGSTGDDLQA-NH2 [Peptide 2: TTDGSTGDDLQA (SEQ ID NO: 1)] | -0.996 | -1.31 | -0.535 | -0.488 | -1.13 | -1.01 | -1.21 | -1.11 | -0.409 |
| SWYDHMAGDSSY-NH2 [Peptide 1: SWYDHMAGDSSY (SEQ ID NO: 2)] | -0.747 | -1.1 | 0.198 | -0.509 | -1.7 | -1.11 | -1.51 | -1.05 | -0.548 |

molecular target: T2, Histidine-tagged human TWEAK …; experiment: SPR (Biacore 3000), His6-TWEAK immobilized on NTA chip, peptide as analyte, 1:1 Langmuir fit

| Kd [µM] | Binder |
| --- | --- |
| 170 | TTDGSTGDDLQA-NH2 [Peptide 2: TTDGSTGDDLQA (SEQ ID NO: 1)] |
